± gives the uncertainty stated by the source.

This series can be described thus: amyloid nucleation score (Sup35N fusion, yeast selection) (log enrichment); library NNK2; higher = more nucleation; inactive = no reads after selection. The method, boiled down: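 Libraries of peptides of 20 random codons fused to Sup35N were expressed in psi-negative yeast and induced 24 hours with 100 μM copper sulfate. Selection was 7 days at 30°C on medium lacking adenine and uracil, and plasmid inserts were Illumina-sequenced before and after selection. Nucleation score is the DiMSum log enrichment of output over input reads, centred on the mode score of non-aggregating sequences, and sequences with under 100 input reads were left out.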
Consider NVDLFWQWVYVYWRGARVEF, for which the amyloid nucleation score came out at 0.075 ± 0.43.
The substance NVFTNTLVN gave an amyloid nucleation score of 8.667 ± 0.081.
Take NVLLKNLESPIFYRDMTTL: the amyloid nucleation score was -0.252 ± 0.76.
Next, NVLQLDPFFAYSVRCILGSE: “inactive”; NVRDYRIFDL: -0.877 ± 0.78; NVRIVYRPAGPFG: -0.347 ± 0.39.
Next, NVRVRLET: 0.027 ± 0.27.
The value for NVSGMFISMLIFRIMHHGQC was 5.11 ± 0.055; that for NVVGRYKSSDSLTYARWGWR was -0.064 ± 0.34.
The substance NVVIRNRFWMNSGRARISAY showed an amyloid nucleation score of -0.428 ± 0.49.
The value for NWKANYEFVRLIVVLLSSRR was 0.202 ± 0.64; that for NWLCRWWQGWNLT was 0.739 ± 0.28; that for NWPMGGHVYKHRVSHSG was 0.095 ± 0.53.
Substance NWQVPKVFQVLNYA showed an amyloid nucleation score of 0.054 ± 0.79.
Next, NWRTCLALNCLTDPAKYLIN: -0.725 ± 0.76; NWSGMPLPFLTFRKRFVEV: -0.998 ± 1; NWVLVVGSSWEFLSGSASGG: 2.18 ± 0.17.
The substance NWVMVLGLGVCKSIWLLPMV gave an amyloid nucleation score of -0.572 ± 0.76.
The value for NWWESRAFGWYDSLSIFSYT was -0.469 ± 1.1; that for NYCMRGVASIG was -0.475 ± 0.45; that for NYCNDGVGCYS was 4.82 ± 0.067.
Regarding NYFSTDMGFCLRDTYCRCEI, the amyloid nucleation score came out at 4.68 ± 0.089.
The value for NYITSSVCFCCSDPMYTPSR was 8.552 ± 0.031; that for NYLTQCSRSFNFARVDF was -0.003 ± 0.56; that for NYREMLWSDIRVVS was 0.004 ± 1.1.
Next, NYSRL: -0.099 ± 0.26.
Next, NYVCSWMLRFSVGRSQIPAV: -0.924 ± 0.76.
With NYWRDGQNDLGWLSLANFFK, the amyloid nucleation score result was “inactive”.
The value for NYYQR was 0.025 ± 1.1.
The value for PACTLESYRSNNFDGLFMTT was -0.609 ± 0.76; that for PALCVNAVTKIDRNNCYDNG was 3.92 ± 0.064; that for PALQCLSHRAIA was 0.222 ± 0.62.
The value for PASISLNFS was 1.58 ± 0.22.
PAVWVN displayed an amyloid nucleation score of -0.34 ± 0.56.
The value for PCENLVCEII was “inactive”; that for PCGLIV was 0.22 ± 0.63.
The value for PCPSISGLFASAYPITRLSL was -0.347 ± 0.24.
The value for PCTRS was 0.414 ± 0.31; that for PDAIVSGVEHAKGTSDAALS was -0.15 ± 0.28.
On to PDDLYCNPEGSLYQSIW, for which the amyloid nucleation score result was “inactive”.
Next, PDGTVYDGYSFCSVS: -0.615 ± 0.63.
Next, PDPVPM: 0.632 ± 0.31; PDVTGKELHF: 3.42 ± 0.071; PFAWANKYTIQPINPYRGAA: -0.552 ± 0.41.
The value for PFCCLWFGLMHSSGVFRFMG was “inactive”; that for PFDFAGA was 2.91 ± 0.087; that for PFLQLCREAIFCLSHDGMLK was -0.575 ± 0.28.
As for PFLVLSWDRCN, the amyloid nucleation score is -0.288 ± 1.1.
PFRSS showed an amyloid nucleation score of -0.415 ± 0.36.
For PFSFRLSGINSPPVISVA, the amyloid nucleation score is -1.16 ± 0.41.
The value for PFVNVM was -0.047 ± 0.38; that for PGCHEVSKF was -1.14 ± 0.47; that for PGCHWISASCGDVLDKGNTG was 0.501 ± 0.62.
Next, PGCSIDWILYRRTAYGTISD: -0.619 ± 0.36; PGMPARVHTCLSAMTYNFMC: -0.901 ± 0.44.
Next, PGNCRSFCRS: 0.695 ± 0.47.
Turning to PGPAKVANCGWCTYTGGTSH, the amyloid nucleation score is 1.12 ± 0.45.
Next, PGRLKCGNSRYFWYFDMRHV: “inactive”; PGSVTGMLWSGTFEVRYLGL: 0.101 ± 0.26; PGYPVTFLRRDAYAVREFEF: -0.1 ± 1.
For the substance PGYSVVIWELSEEGTFYKRK, the amyloid nucleation score result was “inactive”.
Next, PHCCCRTSHLSPLNQRDKGS: 0.11 ± 0.77; PHCRSLETH: -0.083 ± 0.33.
The value for PHLFFDTFV was 3.98 ± 0.087; that for PICHLRGGSISRRSNFIQGC was -1.12 ± 0.76.
The value for PICLPVNMLVFKSMNSN was 2.28 ± 0.073; that for PIHNNKHGCFSSERSSFHKM was -1.6 ± 0.75.
For PISNAYCMGTNRSLRIGIRC, the amyloid nucleation score worked out at 0.641 ± 0.21.
The value for PISTSFYRMSILEYGSR was -0.529 ± 0.64; that for PITCMLQ was 0.398 ± 0.35; that for PKPTYTP was 0.292 ± 0.38.
Consider PKVVPMISRIAVPL, for which the amyloid nucleation score was -0.788 ± 0.76.
The value for PKWIPYSRRWPWAYIF was -1.2 ± 0.48; that for PLCRRLVLLFRIFYNSRN was -1.46 ± 1.1.
The value for PLRVRNNGGTVDKFLLRVFE was 0.489 ± 0.4; that for PLSGWYQYIRDGVLSVWLSV was 0.713 ± 0.74.
The value for PLVLSFFRAIYSYYCNWKTC was -0.649 ± 0.64; that for PLYSPRVCFFGYAPKVCITH was -0.724 ± 0.4.
PMCISLHVTTKGAMFNRGCF had an amyloid nucleation score of 7.18 ± 0.057.
The value for PMFVSLVKFTYWSCTVFLGA was -0.582 ± 0.38.
Next, PMFYGCGPKLCDYYMNVLFV: 2.85 ± 0.12; PMICEHAGHSGWH: 1.11 ± 0.22.
Next, PMSFTLNRRQRRLHMLRTNN: 0.854 ± 0.43.
In turn, PNERFVSTLWCRDVCDPWSW registered an amyloid nucleation score of 0.798 ± 0.51.
The value for PNRKSYLAYNMDSPT was -0.32 ± 0.24; that for PNSRGLSQVNLSFVENRRWS was 3.84 ± 0.044; that for PPRYARFKSDLHSLHAVFGN was 5.57 ± 0.061.
Next, PQNSIPCFAIFTWAWSMKKL: “inactive”; PRDNSQVLILLNW: 5.424 ± 0.041.
The value for PREFGRLL was -0.757 ± 0.35; that for PRFAYCSSIANKMMGVG was 2.36 ± 0.18; that for PRLPTQTITK was 1.53 ± 0.16.
In turn, PRMSTMTTKCGKLKNGKYRR showed an amyloid nucleation score of 0.549 ± 0.51.
Next, PRPRWRYCFACRLAVFGTVG: 6.83 ± 0.036; PRSGSYYTFF: -0.672 ± 1.1; PRSGVSAKQSCAWNVRDGDR: 0.566 ± 0.39.
As for PSFMLHTCLFSHGYYILCTG, the amyloid nucleation score is 0.005 ± 0.3.
PSFSFVMTLVNFRPDFLSMH yielded an amyloid nucleation score of -1.2 ± 0.78.
Next, PSFTLMDVFRI: 0.701 ± 0.26; PSHSRMRIMNSTYSSFLLKV: 0.214 ± 0.18; PSNLKFKYSCFLLNKCMGVR: 0.153 ± 0.43.
The value for PSSYGWCMLFLVWDIQSTL was -0.829 ± 1.
The value for PSYFRNRIRLSRVGTNGYTR was -0.693 ± 1.1; that for PSYMACSA was -0.187 ± 0.56; that for PTRCRVSYKRLRCSQLSLQL was -0.012 ± 0.79.
Substance PTRVKIFFQRMCGVVAVGWS gave an amyloid nucleation score of 1.42 ± 0.39.
For PTSDALLKCSAPFCSVRPVP, the amyloid nucleation score was found to be 0.138 ± 0.76.
For PVCFGIEVYDVRFVASNVPG, the amyloid nucleation score was 0.313 ± 0.48.
Next, PVCWAAFRYTYKARMKRWSK: 5.06 ± 0.055; PVFCTLYHAAWSHRIRISVF: -1.57 ± 0.54.
Next, PVFRFTSGPLDKNCVYRVN: 0.564 ± 0.57; PVGEEVADVMLTFYKHHLVD: -0.913 ± 1.1.
Next, PVIFGTR: 0.192 ± 1; PVLDGHCSWGGLSTAEETDR: 0.29 ± 0.29; PVWGSTCWFDVTWVRFKLFW: 2.61 ± 0.11.
Regarding PWCGRSMYSVSGKGQMWMRA, the amyloid nucleation score was found to be 1.03 ± 0.4.
PWFKTFWSNMWAVTGW returned an amyloid nucleation score of -0.436 ± 1.1.
The value for PWHTSFALERKDMGHK was -0.094 ± 0.36.
The value for PWRRISMVVSWQYIEFIKYL was -0.832 ± 0.78; that for PWVSILLVPMYQRHLTPHPE was -0.121 ± 1.1.
Next, PYLFMESMKD: 0.117 ± 0.79; PYRPHYAAVLRLAR: 0.08 ± 0.33; PYSTTNGHSGVWLRWLKGPC: 0.569 ± 0.27.
On to PYWYYVFCS, for which the amyloid nucleation score is -0.689 ± 0.49.
Next, PYYTIVMFAFYGLLTVRMGI: 0.706 ± 0.4.
The value for QAHATFSILRTISAVFSPMQ was 5.973 ± 0.057; that for QAISVEVVGYRSNLESFTIW was 1.71 ± 0.11.
The value for QAWYRLVCIASYLFYEGFNV was 0.193 ± 0.13; that for QCLIDWSFTFLLNVVLDYFY was “inactive”; that for QCWLGTGFLRVLACAVAFLY was “inactive”.
Regarding QDCKAISSCLFRLLPELSLR, the amyloid nucleation score is -0.92 ± 1.1.
Next, QDDGM: -0.826 ± 0.41; QDNFQFFAVSMRGCDCTGVS: 6.96 ± 0.048.
The value for QDPFQIRLLVVLNFDNLYLW was 2.08 ± 0.1; that for QEAALG was 1.27 ± 0.35; that for QFCSDCV was -0.9 ± 0.76.
Next, QFRAWWFTSVDRTPSDNHTV: 4.99 ± 0.059; QFVGFVRWFVWEWGLLVID: 0.706 ± 0.81; QFVSDALVWGGITSMGWLMR: 0.756 ± 0.4.
On to QGAVLTL, for which the amyloid nucleation score is -1.12 ± 0.76.
The value for QGLMIVINGSSYYVYVCLKG was 1.09 ± 0.12.

Source of the values: the supplement of paper PMC12042874.
